Laboratory results published in patent US20100242127.

Tested on: 75 aa long oligopeptide with the correct sequence of amino acids 351-399 of the α2 subunit of the GABAA receptor

Sequence of recombinant p42 MAP Kinase (Erk2) (New England Biolabs) (P28482 2-360): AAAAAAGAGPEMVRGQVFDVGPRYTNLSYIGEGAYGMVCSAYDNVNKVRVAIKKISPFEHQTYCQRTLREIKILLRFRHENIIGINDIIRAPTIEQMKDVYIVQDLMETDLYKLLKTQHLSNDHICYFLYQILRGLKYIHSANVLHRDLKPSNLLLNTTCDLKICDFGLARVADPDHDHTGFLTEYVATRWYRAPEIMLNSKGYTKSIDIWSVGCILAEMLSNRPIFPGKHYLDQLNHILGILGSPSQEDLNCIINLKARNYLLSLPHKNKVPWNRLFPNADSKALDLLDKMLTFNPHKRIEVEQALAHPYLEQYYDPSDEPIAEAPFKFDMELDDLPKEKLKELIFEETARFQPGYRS

With “recombinant p42 MAP Kinase (Erk2) (New England Biolabs)” the “average share of total phosphorylation at each of the other nine Ser/Thr residues (in vitro kinase assay, ^32P incorporation)” value was “the other nine Ser/Thr residues are phosphorylated at an average of 4% each”, the “incorporation of ^32P as a readout of phosphorylation (in vitro kinase assay)” value was “the construct with the wildtype sequence shows a much higher incorporation of ^32P than the second construct with the mutated T393” and the “share of total phosphorylation at T393 (in vitro kinase assay, ^32P incorporation)” value was 63% of total phosphorylation occurs at the putative Erk2 site.
